This note sets out measurements from article PMC3200332.

For this experiment, the target named is pyruvate ferredoxin oxidoreductase (POR) from P. furiosus (Pyrococcus furiosus).

“OE-SHI Dimer, heterodimeric form of P. furiosus soluble hydrogenase I (His9-PF0893 + PF0894) (from UniProt Q8U2E5 1-367) (complex)” registered a POR-linked H2 evolution activity (electrons from pyruvate via POR; ferredoxin had no significant effect) of 0.2 U mg^−1.

Consider “native Pyrococcus furiosus soluble hydrogenase I (SHI), heterotetramer PF0891-PF0894 (from UniProt Q8U2E5 1-367; Q8U2E5 1-367) (complex)”, for which the POR-linked H2 evolution activity (electrons from pyruvate via POR) is -0 U mg^−1.
